Data published in paper PMC11931385, “Structural and functional analysis of cancer-associated missense variants in the retinoblastoma protein pocket domain” (The Journal of Biological Chemistry, 2025).
Substitutions are numbered along the chain they refer to. Names and notes keep the numbering of the source. No end group written: not given here. TMR = tetramethyl rhodamine dye

T1: Rb^P R556Q (human, UniProt P06400 380-788, R556Q)
T1 construct: also called variant 30
T1 sequence (looked up): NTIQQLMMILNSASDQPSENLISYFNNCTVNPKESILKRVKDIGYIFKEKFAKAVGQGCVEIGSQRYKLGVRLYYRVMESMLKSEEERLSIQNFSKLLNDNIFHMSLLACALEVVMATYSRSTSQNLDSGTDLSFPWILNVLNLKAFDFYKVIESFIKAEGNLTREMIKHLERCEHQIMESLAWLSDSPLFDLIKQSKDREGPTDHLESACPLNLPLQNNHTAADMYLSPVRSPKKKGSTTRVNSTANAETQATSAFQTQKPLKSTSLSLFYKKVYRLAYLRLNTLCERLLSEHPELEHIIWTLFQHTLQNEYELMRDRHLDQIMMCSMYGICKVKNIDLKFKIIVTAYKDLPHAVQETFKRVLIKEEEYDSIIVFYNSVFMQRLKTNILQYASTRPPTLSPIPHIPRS

T2: Rb^P V654L (human, UniProt P06400 380-788, V654L)
T2 construct: also called variant 47
T2 sequence (looked up): T1 sequence (looked up) with Q177R, V275L

B1: TMR-E2F1^TD, peptide of the E2F1 transactivation domain (peptide)
peptide: {TMR}-GEGIRDLFDCDFGDLTPLD
notes: also called E2F^TD; source: synthetic peptide, bought: GenScript
B2: TMR-E7^LxCxE, LxCxE peptide of the E7 oncoprotein from HPV (peptide)
peptide: DLYCYEQLN
modifications: also: TMR label, position not given here
notes: source: synthetic peptide, bought: GenScript

Tests used:
Rb^P R556Q = biological target: T1, Rb^P R556Q; assay: fluorescence polarisation; 25 °C; unlabeled Rb^P titrated against 1.5 nM TMR-E2F1^TD or 7.5 nM TMR-E7^LxCxE; 25 mM Tris pH 8.0, 200 mM NaCl, 1 mM DTT, 0.1% Tween-20; 2 min incubation; quadratic fit; apparent Kd for the variants, Kd for WT; details: both partners purified
Rb^P V654L = biological target: T2, Rb^P V654L; assay: as above; details: both partners purified

Row | Binder | Kd (Rb^P R556Q) [nM] | Kd (Rb^P V654L) [nM]
1 | B1 | 22 | 18
2 | B2 | 5 | 11
